Laboratory results as given in patent publication US6537804B1, “BCR-ABL directed compositions and uses for inhibiting Philadelphia chromesome stimulated cell growth” (Board of Regents, The University of Texas Systems, priority 1995, dated 2003).

Experiments:
Type in all cases: biochemical
histone H1 = test: Immune complex kinase assay of mutant P160 BCR, transphosphorylation of histone H1
Source text: (§1) Mutant forms of P160^BCR were expressed in COS-1 cells and tested for serine/threonine kinase activities in immune complex kinase assays.
(§2) Using the intensities of the P160^BCR bands as an indication of the amount of active P160^BCR in the immune complex and the intensities of the casein bands as a measure of transphosphorylation activity, the transphosphorylation activity of the Y360F Bcr mutant was reduced about sevenfold, compared with that of the wild type. Similarly, the Y360F Bcr mutant was also defective in transphosphorylating another exogenous substrate, histone H1.

P160^BCR = biological target: T1, P160^BCR (Homo sapiens, UniProt P11274, Y360F); test: Immune complex kinase assay of mutant P160 BCR, autophosphorylation
T1 construct: The original human full length BCR cDNAs were obtained from Dr. John Groffen; expressed in transfected cells; host or cells: COS-1
T1 sequence (P11274 1-1271 Y360F): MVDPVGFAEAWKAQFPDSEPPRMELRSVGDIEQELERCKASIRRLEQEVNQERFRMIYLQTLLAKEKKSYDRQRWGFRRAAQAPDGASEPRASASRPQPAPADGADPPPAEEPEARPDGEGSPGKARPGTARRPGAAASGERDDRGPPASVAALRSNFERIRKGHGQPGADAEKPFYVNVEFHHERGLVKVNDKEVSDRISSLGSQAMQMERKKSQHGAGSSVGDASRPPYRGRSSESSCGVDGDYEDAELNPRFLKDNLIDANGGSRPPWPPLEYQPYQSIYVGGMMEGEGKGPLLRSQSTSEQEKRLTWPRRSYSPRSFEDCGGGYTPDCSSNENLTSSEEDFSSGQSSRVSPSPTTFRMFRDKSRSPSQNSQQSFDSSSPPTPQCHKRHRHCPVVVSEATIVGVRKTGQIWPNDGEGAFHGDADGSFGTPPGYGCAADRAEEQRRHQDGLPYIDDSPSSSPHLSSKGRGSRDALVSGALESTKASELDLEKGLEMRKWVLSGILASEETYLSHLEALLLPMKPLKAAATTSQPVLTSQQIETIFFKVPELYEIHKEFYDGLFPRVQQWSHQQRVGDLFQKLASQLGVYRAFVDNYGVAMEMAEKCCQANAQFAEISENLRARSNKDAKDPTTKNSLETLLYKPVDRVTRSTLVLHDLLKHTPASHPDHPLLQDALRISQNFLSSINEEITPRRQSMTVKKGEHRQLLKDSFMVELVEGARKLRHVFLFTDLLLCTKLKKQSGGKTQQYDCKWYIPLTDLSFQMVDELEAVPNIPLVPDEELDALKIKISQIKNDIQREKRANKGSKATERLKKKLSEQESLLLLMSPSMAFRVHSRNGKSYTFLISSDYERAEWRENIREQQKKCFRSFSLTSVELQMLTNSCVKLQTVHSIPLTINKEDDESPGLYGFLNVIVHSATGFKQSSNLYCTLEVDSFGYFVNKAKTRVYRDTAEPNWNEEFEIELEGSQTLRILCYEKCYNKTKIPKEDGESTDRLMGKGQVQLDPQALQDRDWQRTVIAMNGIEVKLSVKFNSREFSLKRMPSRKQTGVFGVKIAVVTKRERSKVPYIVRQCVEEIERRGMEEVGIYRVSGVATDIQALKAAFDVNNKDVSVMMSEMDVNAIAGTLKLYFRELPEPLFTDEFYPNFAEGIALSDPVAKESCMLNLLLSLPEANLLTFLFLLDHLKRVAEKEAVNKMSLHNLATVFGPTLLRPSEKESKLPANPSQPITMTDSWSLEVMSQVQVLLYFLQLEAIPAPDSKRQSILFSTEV
Source text: as §1

casein = test: Immune complex kinase assay of mutant P160 BCR, transphosphorylation of casein
Source text: as §1, §2
The amounts of Bcr within these immune complexes were quantitated in two ways. In a first method, the amounts of Bcr mutants would be underestimated by about 10%, compared with that of the wild type. On the basis of these measurements, the specific activity of transkinase activity (casein intensity/P160^BCR intensity) of the Y360F Bcr mutant (0.03) was reduced more than 20-fold in this study, compared with that of the wild type.
The second method of estimating the amounts of P160^BCR in immune complexes involved the Western blotting of these immune complexes with an anti-Bcr antibody. The specific activity of Y360F was reduced by about sixfold. […] By using autophosphorylation of the Bcr protein as a measure of its relative amount, the reduction of Bcr's transkinase by the Y360F mutation was about sevenfold, confirming the results obtained by the Western blot method.

[1] = first method of quantitating Bcr in immune complexes

B1: Y360F Bcr mutant: P160 BCR with tyrosine 360 to phenylalanine mutation, expressed in COS-1 cells (protein, UniProt P11274 1-1271, looked up, variant Y360F)
Breakpoint cluster region …: MVDPVGFAEAWKAQFPDSEPPRMELRSVGDIEQELERCKASIRRLEQEVNQERFRMIYLQTLLAKEKKSYDRQRWGFRRAAQAPDGASEPRASASRPQPAPADGADPPPAEEPEARPDGEGSPGKARPGTARRPGAAASGERDDRGPPASVAALRSNFERIRKGHGQPGADAEKPFYVNVEFHHERGLVKVNDKEVSDRISSLGSQAMQMERKKSQHGAGSSVGDASRPPYRGRSSESSCGVDGDYEDAELNPRFLKDNLIDANGGSRPPWPPLEYQPYQSIYVGGMMEGEGKGPLLRSQSTSEQEKRLTWPRRSYSPRSFEDCGGGYTPDCSSNENLTSSEEDFSSGQSSRVSPSPTTFRMFRDKSRSPSQNSQQSFDSSSPPTPQCHKRHRHCPVVVSEATIVGVRKTGQIWPNDGEGAFHGDADGSFGTPPGYGCAADRAEEQRRHQDGLPYIDDSPSSSPHLSSKGRGSRDALVSGALESTKASELDLEKGLEMRKWVLSGILASEETYLSHLEALLLPMKPLKAAATTSQPVLTSQQIETIFFKVPELYEIHKEFYDGLFPRVQQWSHQQRVGDLFQKLASQLGVYRAFVDNYGVAMEMAEKCCQANAQFAEISENLRARSNKDAKDPTTKNSLETLLYKPVDRVTRSTLVLHDLLKHTPASHPDHPLLQDALRISQNFLSSINEEITPRRQSMTVKKGEHRQLLKDSFMVELVEGARKLRHVFLFTDLLLCTKLKKQSGGKTQQYDCKWYIPLTDLSFQMVDELEAVPNIPLVPDEELDALKIKISQIKNDIQREKRANKGSKATERLKKKLSEQESLLLLMSPSMAFRVHSRNGKSYTFLISSDYERAEWRENIREQQKKCFRSFSLTSVELQMLTNSCVKLQTVHSIPLTINKEDDESPGLYGFLNVIVHSATGFKQSSNLYCTLEVDSFGYFVNKAKTRVYRDTAEPNWNEEFEIELEGSQTLRILCYEKCYNKTKIPKEDGESTDRLMGKGQVQLDPQALQDRDWQRTVIAMNGIEVKLSVKFNSREFSLKRMPSRKQTGVFGVKIAVVTKRERSKVPYIVRQCVEEIERRGMEEVGIYRVSGVATDIQALKAAFDVNNKDVSVMMSEMDVNAIAGTLKLYFRELPEPLFTDEFYPNFAEGIALSDPVAKESCMLNLLLSLPEANLLTFLFLLDHLKRVAEKEAVNKMSLHNLATVFGPTLLRPSEKESKLPANPSQPITMTDSWSLEVMSQVQVLLYFLQLEAIPAPDSKRQSILFSTEV
With B1 the “Transphosphorylation of histone H1” value (histone H1) was “defective”, the “P160^BCR autophosphorylation” value (P160^BCR) was “not detectably altered” and the “Reduction of specific activity compared with wild type” value (casein; P160 BCR amount by Western blotting of immune complexes with anti-Bcr antibody) was “about sixfold”. The “Reduction of transphosphorylation activity compared with wild type, relative to P160 BCR autophosphorylation band intensity” value (casein; casein band intensity / P160 BCR band intensity) was “about sevenfold”, the “Reduction of specific transkinase activity compared with wild type” value (casein; [1]) was “more than 20 fold” and the “Specific activity of transkinase activity (casein intensity/P160^BCR intensity)” value (casein; [1]) was 0.03. The “Ability to transphosphorylate casein compared with wild-type Bcr” value (casein; mutant P160 BCR expressed in COS-1 cells) was “severely inhibited”.
